This note sets out measurements from patent publication US6528633.

Data set [1] deals with clam E3-C/cyclosome complex, activated, partially purified.
Data set [2] deals with non-specific ubiquitin-protein ligase (E3) from clam oocyte Fraction 1A.

B1: recombinant clam E2-C, bacterially expressed (protein)
chain: MSGQNIDPAANQVRQKERPRDMTTSKERHSVSKRLQQELRTLLMSGDPGITAFPDGDNLFKWVATLDGPKDTVYESLKYKLTLEFPSDYPYKPPVVKFTTPCWHPNVDQSGNICLDILKENWTASYDVRTILLSLQSLLGEPNNASPLNAQAADMWSNQTEYKKVLHEKYKTAQSKDK
In the case of B1, in data set [1], the “half-maximal activation of cyclin ubiquitination” value is reported as “half-maximal activation was obtained with 0.05 µM recombinant E2”. Also, the “formation of ubiquitin-protein conjugates” value in data set [2] is given as “the recombinant clam E2 had no significant influence on the formation of ubiquitin-protein conjugates by the non-specific E3”.
